Test results published in paper PMC5062617, “Nop9 is a PUF-like protein that prevents premature cleavage to correctly process pre-18S rRNA”.
Where a chain is given by its changes, count along the chain named. Names and notes keep the numbering of the source.

Tests used:
Test in all cases: EMSA; EMSA: 10 mM HEPES, 150 mM NaCl, 0.01% Tween-20, 0.1 mg/ml BSA, 1 mM TCEP, 4 °C, 40 min; RNA <50 pM
Nop9 (46-645) [1] = biological target: T1, Nop9 (46-645) (Saccharomyces cerevisiae, UniProt P47077 46-645); conditions: protein: recombinant, tags: none (SUMO cleaved), hairpin
T1 sequence: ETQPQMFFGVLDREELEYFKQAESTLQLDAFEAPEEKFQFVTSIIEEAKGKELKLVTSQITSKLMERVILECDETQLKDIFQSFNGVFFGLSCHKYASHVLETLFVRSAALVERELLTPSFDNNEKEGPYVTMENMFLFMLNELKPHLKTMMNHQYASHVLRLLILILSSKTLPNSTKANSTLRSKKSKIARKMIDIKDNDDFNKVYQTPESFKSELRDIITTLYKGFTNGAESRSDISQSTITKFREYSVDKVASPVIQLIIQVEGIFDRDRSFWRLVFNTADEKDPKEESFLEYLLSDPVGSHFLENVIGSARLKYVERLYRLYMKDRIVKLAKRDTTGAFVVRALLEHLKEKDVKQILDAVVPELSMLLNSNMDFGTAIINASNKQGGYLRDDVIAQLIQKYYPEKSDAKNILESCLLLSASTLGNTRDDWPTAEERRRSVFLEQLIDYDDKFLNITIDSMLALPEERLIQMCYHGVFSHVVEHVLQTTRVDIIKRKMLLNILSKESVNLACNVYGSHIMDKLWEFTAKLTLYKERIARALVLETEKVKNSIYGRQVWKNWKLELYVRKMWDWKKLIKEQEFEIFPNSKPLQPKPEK

Nop9 full-length = biological target: T2, Nop9 full-length (Saccharomyces cerevisiae, UniProt P47077 1-666); conditions: protein: recombinant; tags: none (SUMO cleaved); label: 5' 32P; hairpin, 5' flank
T2 sequence: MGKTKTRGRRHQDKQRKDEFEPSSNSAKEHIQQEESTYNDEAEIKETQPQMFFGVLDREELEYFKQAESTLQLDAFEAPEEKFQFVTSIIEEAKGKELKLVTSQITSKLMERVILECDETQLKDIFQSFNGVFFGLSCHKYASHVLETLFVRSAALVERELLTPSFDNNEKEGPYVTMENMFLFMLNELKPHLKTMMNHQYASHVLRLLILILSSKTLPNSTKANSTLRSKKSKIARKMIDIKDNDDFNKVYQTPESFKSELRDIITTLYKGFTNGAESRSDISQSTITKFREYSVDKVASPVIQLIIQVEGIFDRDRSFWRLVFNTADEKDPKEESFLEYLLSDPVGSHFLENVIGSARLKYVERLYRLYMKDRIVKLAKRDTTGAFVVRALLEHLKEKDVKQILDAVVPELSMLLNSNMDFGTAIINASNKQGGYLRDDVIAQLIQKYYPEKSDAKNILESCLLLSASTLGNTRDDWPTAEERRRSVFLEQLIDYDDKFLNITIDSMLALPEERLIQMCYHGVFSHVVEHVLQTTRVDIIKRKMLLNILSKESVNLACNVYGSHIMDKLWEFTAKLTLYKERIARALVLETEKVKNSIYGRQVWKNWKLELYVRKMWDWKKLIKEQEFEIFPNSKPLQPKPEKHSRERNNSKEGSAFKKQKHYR

Nop9 (46-645) [2] = biological target: T1, Nop9 (46-645); conditions: protein: recombinant; tags: none (SUMO cleaved); label: 5' 32P; hairpin, 5' flank
Nop9 (46-645) [3] = biological target: T1, Nop9 (46-645); conditions: protein: recombinant; tags: none (SUMO cleaved); label: 5' 32P; hairpin, 5' flank; remark: listed apart in the source

B1: ITS1 Subdomain A (1-38_184-212) (structured_RNA)
RNA: GGAAGAAAUUUAAUAAUUUUGAAAAUGGAUUUUUUUGUUUUAUAGGACAAUUAAAACCGUUUCAAUACAAC
Kd (Nop9 (46-645) [1]; label: 5' 32P (EMSA), 5' and 3' single-stranded flanks): 2.4 ± 0.3 nM

B2: ITS1 Subdomain B (39-77_140-183) (structured_RNA)
RNA: GGUGGCAAGAGCAUGAGAGCUUUUACUGGGCAAGAAGACAAUUUCUUGCUAUUCCAAACGGUGAGAGAUUUCUGUGCUUUUGUUA
Kd (Nop9 (46-645) [1]; label: 5' 32P): 105 ± 2.9 nM

B3: Subdomain A Δ5'1-6, Δ3' (structured_RNA)
RNA: GGUUUAAUAAUUUUGAAAAUGGAUUUUUUUGUUUUAUAGGACAAUUAAAACCGUUUCAA
Kd (Nop9 full-length): 10.1 ± 1 nM
Kd (Nop9 (46-645) [1]; label: 5' 32P, 5' flank): 11.8 ± 0.4 nM

B4: Subdomain A Δ5'1-12, Δ3' (structured_RNA)
RNA: GGAAUUUUGAAAAUGGAUUUUUUUGUUUUAUAGGACAAUUAAAACCGUUUCAA
Kd (Nop9 (46-645) [1]; label: 5' 32P, 5' flank): 18.2 ± 1.9 nM

GGUUUGAAAAUGGAUUUUUUUGUUUUAUAGGACAAUUAAAACCGUUUCAA (structured_RNA) [Subdomain A Δ5'1-15, Δ3']
Kd (Nop9 (46-645) [1]; label: 5' 32P): 346 ± 40 nM

B5: UUU(7-9)GGG, A Δ5'1-6, Δ3' (structured_RNA)
RNA: B3 RNA with U3G, U4G, U5G
Kd (Nop9 (46-645) [1]; label: 5' 32P, 5' flank): 6.6 ± 0.3 nM

B6: AAU(10-12)CCC, A Δ5'1-6, Δ3' (structured_RNA)
RNA: B3 RNA with A6C, A7C, U8C
Kd (Nop9 (46-645) [1]; label: 5' 32P, 5' flank): 8.5 ± 0.6 nM

B7: AAU(13-15)CCC, A Δ5'1-6, Δ3' (structured_RNA)
RNA: B3 RNA with A9C, A10C, U11C
Kd (Nop9 (46-645) [1]; label: 5' 32P, 5' flank): 27.6 ± 3.7 nM

B8: I: UUU(16-18)GGC, AA(205-206)GC (structured_RNA)
RNA: B3 RNA with U12G, U13G, U14C, A58G, A59C
Kd (Nop9 (46-645) [1]; label: 5' 32P, 5' flank): 103 ± 12 nM

B9: II: U16G (structured_RNA)
RNA: B3 RNA with U12G
Kd (Nop9 (46-645) [1]; label: 5' 32P, 5' flank): 47.7 ± 1.8 nM

B10: U16A (structured_RNA)
RNA: B3 RNA with U12A
Kd (Nop9 (46-645) [1]; label: 5' 32P, 5' flank): 62.3 ± 4.9 nM

B11: III: UU(17-18)GC, AA(205-206)GC (structured_RNA)
RNA: B3 RNA with U13G, U14C, A58G, A59C
binding signal (Nop9 (46-645) [2]): ~4 fold Kd vs A Δ5'1-6,Δ3'

B12: ITS1 Subdomain C (77-140) (structured_RNA)
RNA: GGAGAGAUGGAGAGUCCAGCCGGGCCUGCGCUUAAGUGCGCGGUCUUGCUAGGCUUGUAAGUUUCU
Kd (Nop9 (46-645) [1]; label: 5' 32P): 74.4 ± 4.1 nM

B13: V: U-G pairs at stem base (structured_RNA)
RNA: UUUAAUAAUUUUGAAAAUGGAUUUUUUUGUUUUAUAGGACAAUUAAAACCGUUUCGG
binding signal (Nop9 (46-645) [3]): ~3 fold Kd vs A Δ5'1-6,Δ3'

B14: IV: stem base strands reversed (UUG17-19AAC, CAA204-206GUU) (structured_RNA)
RNA: B3 RNA with U13A, U14A, G15C, C57G, A58U, A59U
binding result (Nop9 (46-645) [1]; label: 5' 32P, 5' flank): binds

B15: nt 20-22 mutant, pairing kept (structured_RNA)
RNA: B3 RNA with A16C, A17C, A18C, U54G, U55G, U56G
binding result (Nop9 (46-645) [1]; label: 5' 32P, 5' flank): binds

B16: nt 27-30 mutant, pairing kept (structured_RNA)
RNA: GGUUUAAUAAUUUUGAAAAUGGGCGCUUUUGUUUUAUAGGACAAUUGCGCCCGUUUCAA
binding result (Nop9 (46-645) [1]; label: 5' 32P, 5' flank): binds

B17: Subdomain A Δ3' (structured_RNA)
RNA: GGAAGAAAUUUAAUAAUUUUGAAAAUGGAUUUUUUUGUUUUAUAGGACAAUUAAAACCGUUUCAA
Kd (Nop9 (46-645) [1]; label: 5' 32P, 5' flank): 15.7 ± 2.6 nM
